Patent publication US20240026407A1, “MODIFICATION OF SAPONINS” (GLAXOSMITHKLINE BIOLOGICALS SA, priority 2020, published 2024)

B1: 1039 (protein, listed as Lactobacillus acidophilus)
chain: MKITNILVNQMEHPLGFDLSNLRITFELTEMENIIGNVYKNISVGKVESEQPIYFEPDELYENNAFKINMELEPRTKYWVKIGVRNDNEVTSSNTWFETGKMDEKFYGKWITNKKDVENTLFKKDFELANKQIKSARLYSTTLGVYEVDLNGVKVGNEFLAPGFTNYDKIVQLQTYDVTKLVTKNSNNELVFSVGDGWYKGNLGFDGGQTNIYGDKKSILAELHVTYTDNSEQVISTDSSWLTTEGKIIKSSIYYGEDIDDTKDILDWSSVVILNKSTSIVRDRLSLPIMKKEVLKVKEIIHTPKNEIVLDFGQNHAGWPVFINRLARGKKITLQMGEILQDGNFYNKNLRLARAAFTYISDGEEKLIRPHFTYFGFRYVKISGVTDVNKDDFESWVLYSDLKQTGFIKTNNDKVNRLFKNVIWGQKSNFMDVPTDCPQRDERLGWTGDAEIFAPTASFNMNTYEFYKKYAKDMLVEQEDNKGMLPIIVPSLKQKSTGMAIWSDAATIIPWVTYRFFDDLGVLKQNYSQMKNWVDWITQNTKTKYLWIGQMQLGDWLSLDNGANPQGKTNEDYIASIYYFVSASIVSKAARLLHYDMESDYYENLARNIKTNILNEFVTEKGRIAIDTQTALVLALHFGLVHDYQKSQVVADLVKKVKDDNKHLQTGFVGTPFLLSVLSNNNQHHLAMDIFMQEDCPSWLYEVNMGATTIWERWNSVLPDGKMNPEGMNSLNHYSFGAVMMWMYQCVVGLNQFDAGFKEIYFAPKFDCRLKDIYSEFDSTYGKIKVEYHLETNEKHLIRMNLVIPFGVKMKVKLPRSAKYLINGKEKIGIVKLEYGKYDISYIPTKSYLNYYDLNSKLVDILDNNDLVKRIDQIDEKILQKVKRMGNTRSIFINKKIDELLDFEEISQEEKNQLVDILHKTIFIKLNLF
B2: 1079 (protein, listed as Lunatimonas lonarensis)
chain: MSMIRILSLLFLWMLSFSLVAQSTFSLQKLKVDHQENPLGIETASPVFSWQMQVAGSERGVYQKAYRIQVSDSHGALIWDSQQVSSDRSVGIRYQGEKLRPITAYTWSLTVWNQSDHSQTEIGKFETGWMDSPNAWKNAEWIGGDSEDLVLYAHALAVFKAGVTIQLDQESKSTRAAFLLGGNDVRLMKKNLNILQMESGRDGSYVGFELDISQVNGTEEGLALLHAYRVGYHADDQVGTPFHSMPIPQRLIHEGNKYEPHDLFLECNLGIFQVYLNGTENENKISPNDPSKPSYVAQGLNLNPMGEGGNYINFPLLGDIGFKTDSGQLATFSNLTISNYRRPGNVLFSEAESTISIFDKHPNIRAIAGRYQVGTDNKAVLALEDPSRNAPPMLRTTFTTQAKKIKKARIYATARGIYEMYLNGKRVGQDYFNPGLTQYNKNHQYQIYEVTDALESNAANAWGAWLSEGWWSGHITFSGGNWNFFGDRQSFLGTLLIEYEDGTVQEINTQPQSWKLFTDGPILNGSFFQGEVYDANKESVLTGWSLAQFDDSSWKSAQNVPLEGTTYTGPMTNGTLDYKQLTLSAQNDPTPTIIRRLKAVSMEEVRPGVFVYDMGQNMVGVPKITLSHGHQGDTVILRFAEVKYPDLPAYHPHSGMIMMENIRAALTHDIYIRKGGDEVIQPRFTFHGYRYVEITGIKNAPPLNAVEGLVISSVDSIRSSYTTSNQDVNKLWENITWSMLGNFLSIPTDTPARNERMGWSGDINVFARTSTYLGEVLPFLKRHMMAMRDLQAANGKFADVTPVGNGFGGTLWGSAGIVLPWELFLQYGDTTILEENYEAMKAYLAFLETREDKDSGVQMEGPLGDWLSPEVNKNDNTQFFTAYQAYGYGILHQVAQILGKPTEAATFQAKFASRKKFLMDTYFDARTGKSIHSGVSTQGRGGSTAPGTQKGDPIDTQASYAIPLYLEVIDGDLQEKVLANLIATLARENVDDMGILRPAYSLMTGFIATAAINEAISRYGDPVHAYRLLQQTSYPSWLYSVKNGATTIWERLNSYTVEDGFGGNNSMNSFNHYSFGAVGAWMYMYSLGIQRHPEIPGFKKFRLQPQPDPDGKMTWAKGHYDSMYGRIHSEWKRGVDSWEYKATVPPNTSAVLVLPVKDLERVSEGGKMLTEVLGITLISRENGYITMELSSGSYTFSIE
B3: 1041 (protein)
chain: MRAIRLRTEYLTEPLGLGITAPRLYWNADGGLRQTAYQVVARRGGETVWDTGKVASSRMTHVRYEGVPLGSRDRVDWSVVLWDEAGAAGPPAESWFELGLLDPADWTAEWITGDYTPEPDVRYPVDHFRRDFRVREPVLAARLYITAAGVYEAVLNGEPVSEARLGPGATDYRHRLHYQTFDVTSLLAADNVLEVRLADGWYRGSLGAFGATHVFGRETRLLAQLELTYPDGSTETVGSDERFRWSDDGPVRFADLQDGEVYDARLAPSYSGHARITTETMIPTAADNVPVTEHERFPARLLTTPSGARVLDFGQNLAGFVAFTVSGRAGQRLTLRLGEILDGAGEFTQRNFQLRKPVHEFGRDVEILLLTGQESEIKGELQPTPKQEVVFTASGGTDHYVTRFAVFGFRYALVETDLDIDPADFEAIAVYSAMEQTGTCVTSHEGVNRFLENTRWSMKGNFLDVPTDCPTRERLGWTGDAQVFFDTAAYLMDVGAFFRKWLRDVRDGQLADGKLSAVIPYNGTSMLYDTTGGSVGWADAVVLIPYRYWKRYGDESILRDCYDAMRRYAMFMITNAGPLDPEAAADNPHARYLYEKGVHLGDWLEAAEFRDPSPGRTPMPEEATAYLHYTMTHLAEIATVLGETADADLFAEYAQGAKAAYTHQFLRDGTLDTDRQAKLVRPLALGLADGDVKRRLEDRLVQAVKNRDFHVNTGFLSTPFVLPTLTAAGHPEIAYRMLDNEDAPSWLAEVKAGATTVWEDWEGKESRNHYSPGAVCQWLFDTVAGLRVTGENHFTIAPVPGGSLTSAQARYTSVYGTVASSWTRTGTDLHLTVTLPPNTTADVRLPNGTEHVVGPGTHEYTA
modifications: Frankia inefficax
B4: 1027 (protein, listed as Dictyoglomus thermophilum)
chain: MKSSNIYSPFDLKCEFTTNPLGVDKKNPIFSWKLRHLEKNEKQTAYQVIVSSSLETINDNIGDVWDTGKVLSSEQVIKYEGKELEPCKVYFWKVRWWDSKDQESPFSVVNTFETGLMNEENWKAKWITKKEHKYEVYSPDGAPFGLNYTIAYAPMFRKSFSISKKIKRARVYIAGLGLYELYINGERIGDRVLDPGQTDYKKRVLYTVYDVSKNIRDGKNAIGVILGNGRYVKEYGYDFPKLIIQVLVEYEDDSIEWIVSDESWKTTYGPITLNSLYHGEIYDGRKEIKGWNLPDFDDSTWENAILAEPPGGKLYSEIYPPIRITKTIKPIKMWSPEPGTYVYDFGQNYTGWIKIKVRTNESGKEIRIRHAELTYEDGTLNYSTNRTALATDVYITKGEGYEEYEPRFTYHGFRYVEILGYPGVPTLEDIEGKVVHTAVESNGEFICSNELINKIHHNIIWGQLSNLMSIPTDCPQRDERMGWMGDAQLSAEEAIFNFDMIGFYRKYLNDIRDAQKENGSLSDVIPPYWSIYPGDPAWSTAYITIAWYLYQYYGDKYVLEEHYEGFKKYVEFLKKLAPDYIVSFYKYGDWCQPGTVRPKDNSGELTSTFYFYHDVITLSKIAKLLGKEADYKYYSELADKIKSAFNKKFLKEKAYASIPTELSEENVKALLEKYPEDIKDFLRQQFTILSSLGMFTSQTLNTLPLYLNLVPEDKVQDVLKTLLEDIIIRHDYHLDTGIVATRYIFDVLTSYGYDEVAYKIVNQKTYPSFGYMIEEGATTLWERWEKLTSTGMNSHNHIMFGSVDAWFYRVIAGVRVGEPGWNKIIFEPHPVGDLKYAKARLNTIKGEVEINWQKTENIFSMRISVPVNSEGEVHVPKLFERFVVKEGDNIIYEKKGDLEENEKYIVIRVGSGSYNFYMEKI

Legend:
Assay type in all cases: biochemical, Quillaja saponaria
[1] = Experiment 6-1: screening of rhamnosidases for derhamnosylation of saponins in treated bark extract (2%), desglucosyl-QS-17 2134 to QS-21 1988 (PAR %); conditions: TBE 2%, pH 7.5, 30 degC, 18 h; TIC peak area ratio percent, LCMS/MS; negative controls 2.719, 2.158
[2] = Experiment 6-3: screening of rhamnosidases for derhamnosylation of saponins in crude bark extract (80%), relative % of Left, Middle and Right Peak by UV HPLC; conditions: CBE 80%, pH 7.4, 30 degC, 19.5 h; for Left Peak: mainly QS-17 family, negative control 27%; for Middle Peak: mainly QS-18 and desglucosyl-QS-17 family, negative control 48%; for Right Peak: mainly QS-21 family, negative control 26%
Procedure: Selected variants were expressed and lysed as in the method of experiment 6-1.
Crude bark extract (CBE) solution was adjusted to pH 7.4 by addition of NaOH (2M). 20 uL clarified lysate was transferred into fresh 96 well PCR plates. 80 uL CBE solution (pH 7.4) was added to each well of lysate to a final concentration of 80%. Plates were incubated at 30 degC with shaking for 19.5 h.
Quenched with 100 uL MeCN+2% AcOH and shaken at room temperature for 10 mins prior to centrifugation (10 min, 4 degC) to remove particulates. Samples were analysed by UV HPLC using method of Experiment 4-4.
Three key peaks of interest are apparent using this chromatography: Left Peak (retention time approximately 2.30-2.35 min) comprising mainly QS-17 family components; Middle Peak (retention time approximately 2.37-2.42 min) comprising mainly QS-18 family components and desglucosyl-QS-17 family components; and Right Peak (retention time approximately 2.44-2.50 min) comprising mainly QS-21 family components. Peak identity was supported by MS/MS.
Enzyme mediated hydrolysis of the alpha-O-rhamnosylation at the C2 position of the arabinofuranose moiety of QS-17 family components leads to a decrease in Left Peak and an increase in Middle Peak due to formation of QS-18 family components. Enzyme mediated hydrolysis of the alpha-O-rhamnosylation at the C2 position of the arabinofuranose moiety of desglucosyl-QS-17 family components leads to a decrease in Middle Peak and an increase in Right Peak due to formation of QS-21 family components.
The relative percentage of each peak was determined. A decrease in Left Peak and a concomitant increase in Middle Peak and Right Peak is observed for enzymes active under these conditions.

[3] = Experiment 6-1: screening of rhamnosidases for derhamnosylation of saponins in treated bark extract (2%), QS-17 2310 to QS-18 2164 (PAR %); conditions: TBE 2%, pH 7.5, 30 degC, 18 h; TIC peak area ratio percent, LCMS/MS; negative controls 3.061, 2.429
[4] = Experiment 6-2: screening of rhamnosidases for derhamnosylation of saponins in treated bark extract (25%), relative % of Left, Middle and Right Peak by UV HPLC; conditions: TBE 25%, pH 7.4, 19.5 h; for Left Peak: mainly QS-17 family, negative control 24%; for Middle Peak: mainly QS-18 and desglucosyl-QS-17 family, negative control 50%; for Right Peak: mainly QS-21 family, negative control 26%
[5] = Experiment 6-1: screening of rhamnosidases for derhamnosylation of saponins in treated bark extract (2%), QS-17 2296 to QS-18 2150 (PAR %); conditions: TBE 2%, pH 7.5, 30 degC, 18 h; TIC peak area ratio percent of rhamnosylated starting saponin to derhamnosylated product, LCMS/MS; negative controls 4.876, 5.225
[6] = Experiment 6-1: specificity of rhamnosidases towards other rhamnose residues (C3 saccharide rhamnose, C28 saccharide rhamnose); conditions: TBE 2%, pH 7.5, 30 degC, 18 h; LCMS/MS; negative controls 0.18, 0.17

| Molecule | Peak75 (PAR %) [1] [%] | Left Peak [2] [%] | Middle Peak [2] [%] | Right Peak [2] [%] | Peak57 (PAR %) [3] [%] | Left Peak [4] [%] | Middle Peak [4] [%] | Right Peak [4] [%] | QS-17 (PAR %) [5] [%] | ratio PP/QS-21 [6] |
| --- | --- | --- | --- | --- | --- | --- | --- | --- | --- | --- |
| B1 | 0.683 | 25 | 48 | 27 | 0.000 | 16 | 57 | 27 | 0.492 | 0.18 |
| B2 | 0.247 | 25 | 48 | 27 | 0.000 | 14 | 58 | 28 | 0.315 | 0.18 |
| B3 | 0.000 | 25 | 48 | 27 | 0.000 | 15 | 55 | 30 | 0.507 | 0.16 |
| B4 | 0.094 | 26 | 48 | 26 | 0.053 | 18 | 55 | 27 | 0.324 | 0.19 |
